Data reported in patent US20170306002A1 (UNITED STATES OF AMERICA AS REPESENTED BY THE SECRETARY …, published 2017).

Target: NA of A/Bethesda/NIH107-D31/2009 (pH1N1, H275Y) (influenza A virus …)
Test: cell-based or functional assay

B1: mAb CD6 (whole IgG) (antibody, V domains shown)
VH: QVKLQESGGGLVQPKGSLKLSCAASGFTFNTYAMNWVRQAPGKGLEWVARIRSKSNNYATFYADSVKDRFTISRDDSQSMLYLQMHNLKTDDTAMYYCVRPSIYYYASGYLDVWGAGTTVTVSS
VL: QIVLSQSPAILSASPGEKVTMTCRTSSSVSYMHWYQQKPGSSPKPWIYATSNLASGVPFRFSGSGSGTSYSLTISRVEAEDAATYYCQQWNSNPPTFGGGTKLEIKR
IC50, inhibition of NA activity in ELLA (fetuin substrate): 0.029 µg/mL
